Where two headings read alike, the source gives them in different places.
What was measured:
[1] = tested on: A/Wisconsin/67/2005 (H3N2)-overexpressing 3T3 cells; details: read-out: EC50 ADCC with human donor PBMCs
[2] = tested on: A/Wisconsin/67/2005 (H3N2)-overexpressing 3T3 cells; details: read-out: EC50 FcγRIIIA activation (ADCC-Glo reporter bioassay)

B1: H1H14612N2: fully human anti-influenza A group 2 HA monoclonal antibody, HCVR/LCVR SEQ ID NOs: 18/26 (antibody, V domains shown)
VH: EVQLVESGGGLVKPGGSLRLSCAASGFSFSGFSMNWVRQAPGKGLEWVSSISTSGNYMYYADSVKGRFTISRDNAKKSFSLQMNSLRAEDSAIYYCARGGGYNWNLFDYWGQGSLVTVSS
VL: EIVLTQSPGTLSLSPGERATLSCRASQSLNSNYLAWYQQKPGQAPRLLIYGASSRATGIPDRFSGSGSGADFTLTISRLESEDFAVYYCQQYGNSPLTFGGGTKVEIK
B1 showed an EC50 [1] of 0.176 nM and an EC50 [2] of 0.688 nM.
